Where a chain is given by its changes, count along the chain named. Names and notes keep the numbering of the source.
T1: AMARA peptide, synthetic substrate NH2-AMARAASAAALARRR-CO2H
T1 chain: AMARAASAAALARRR

B1: PASK ΔN, truncated variant of human PASK lacking both PAS domains (protein)
chain: SLPGSTHSTAAELTGPSLVEVLRARPWFEEPPKAVELEGLAACEGEYSQKYSTMSPLGSGAFGFVWTAVDKEKNKEVVVKFIKKEKVLEDCWIEDPKLGKVTLEIAILSRVEHANIIKVLDIFENQGFFQLVMEKHGSGLDLFAFIDRHPRLDEPLASYIFRQLVSAVGYLRLKDIIHRDIKDENIVIAEDFTIKLIDFGSAAYLERGKLFYTFCGTIEYCAPEVLMGNPYRGPELEMWSLGVTLYTLVFEENPFCELEETVEAAIHPPYLVSKELMSLVSGLLQPVPERRTTLEKLVTDPWVTQPVNLADYTWEEVCRVNKPESGVLSAASLEMGNRSLSDVAQAQELCGGPVPGEAPNGQGCLHPGDPRLLTS
B2: human PASK enzyme, wildtype, pre-phosphorylated in the presence of ATP (protein)
chain: MEDGGLTAFEEDQRCLSQSLPLPVSAEGPAAQTTAEPSRSFSSAHRHLSRRNGLSRLCQSRTALSEDRWSSYCLSSLAAQNICTSKLHCPAAPEHTDPSEPRGSVSCCSLLRGLSSGWSSPLLPAPVCNPNKAIFTVDAKTTEILVANDKACGLLGYSSQDLIGQKLTQFFLRSDSDVVEALSEEHMEADGHAAVVFGTVVDIISRSGEKIPVSVWMKRMRQERRLCCVVVLEPVERVSTWVAFQSDGTVTSCDSLFAHLHGYVSGEDVAGQHITDLIPSVQLPPSGQHIPKNLKIQRSVGRARDGTTFPLSLKLKSQPSSEEATTGEAAPVSGYRASVWVFCTISGLITLLPDGTIHGINHSFALTLFGYGKTELLGKNITFLIPGFYSYMDLAYNSSLQLPDLASCLDVGNESGCGERTLDPWQGQDPAEGGQDPRINVVLAGGHVVPRDEIRKLMESQDIFTGTQTELIAGGQLLSCLSPQPAPGVDNVPEGSLPVHGEQALPKDQQITALGREEPVAIESPGQDLLGESRSEPVDVKPFASCEDSEAPVPAEDGGSDAGMCGLCQKAQLERMGVSGPSGSDLWAGAAVAKPQAKGQLAGGSLLMHCPCYGSEWGLWWRSQDLAPSPSGMAGLSFGTPTLDEPWLGVENDREELQTCLIKEQLSQLSLAGALDVPHAELVPTECQAVTAPVSSCDLGGRDLCGGCTGSSSACYALATDLPGGLEAVEAQEVDVNSFSWNLKELFFSDQTDQTSSNCSCATSELRETPSSLAVGSDPDVGSLQEQGSCVLDDRELLLLTGTCVDLGQGRRFRESCVGHDPTEPLEVCLVSSEHYAASDRESPGHVPSTLDAGPEDTCPSAEEPRLNVQVTSTPVIVMRGAAGLQREIQEGAYSGSCHHRDGLRLSIQFEVRRVELQGPTPLFCCWLVKDLLHSQRDSAARTRLFLASLPGSTHSTAAELTGPSLVEVLRARPWFEEPPKAVELEGLAACEGEYSQKYSTMSPLGSGAFGFVWTAVDKEKNKEVVVKFIKKEKVLEDCWIEDPKLGKVTLEIAILSRVEHANIIKVLDIFENQGFFQLVMEKHGSGLDLFAFIDRHPRLDEPLASYIFRQLVSAVGYLRLKDIIHRDIKDENIVIAEDFTIKLIDFGSAAYLERGKLFYTFCGTIEYCAPEVLMGNPYRGPELEMWSLGVTLYTLVFEENPFCELEETVEAAIHPPYLVSKELMSLVSGLLQPVPERRTTLEKLVTDPWVTQPVNLADYTWEEVCRVNKPESGVLSAASLEMGNRSLSDVAQAQELCGGPVPGEAPNGQGCLHPGDPRLLTS
B3: human PASK S1149A, pre-phosphorylated (protein)
chain: B2 chain with S1149A
B4: human PASK S1273,77,80A, pre-phosphorylated (protein)
chain: B2 chain with S1273A, S1277A, S1280A
B5: human PASK S1273-1289A, pre-phosphorylated (protein)
chain: B2 chain with S1273A, S1277A, S1280A, S1287A, S1289A
B6: human PASK S1287,89A, pre-phosphorylated (protein)
chain: B2 chain with S1287A, S1289A
B7: human PASK enzyme, wildtype, untreated (unmodified, as purified from baculovirus-infected Sf-9 cells) (protein)
chain: B2 chain

Biological target: T1, AMARA peptide, synthetic substrate …

Protein	Km (mM), pre-phosphorylated	fold lower Km for substrate than the unmodified enzyme	Km (mM), untreated
B1	0.3 mM	–	–
B2	0.2 mM	6.5-fold lower Km for substrate than the unmodified enzyme	–
B3	0.6 mM	–	–
B4	0.3 mM	–	–
B5	0.2 mM	–	–
B6	0.2 mM	–	–
B7	–	–	1.3 mM
